US20250321223A1 (KEMIJSKI INSTITUT, published 2025)

Key:
nLuc:cTRβ = molecular target: T1, nLuc:cTRβ; assay: split firefly luciferase complementation in HEK293T cells, ligand dose response (FIG. 2D)
T1 construct: also called Myc:gsg:nLuc:gs10:cTRβ; cSplit of TRβ CISPA sensor
T1 chain: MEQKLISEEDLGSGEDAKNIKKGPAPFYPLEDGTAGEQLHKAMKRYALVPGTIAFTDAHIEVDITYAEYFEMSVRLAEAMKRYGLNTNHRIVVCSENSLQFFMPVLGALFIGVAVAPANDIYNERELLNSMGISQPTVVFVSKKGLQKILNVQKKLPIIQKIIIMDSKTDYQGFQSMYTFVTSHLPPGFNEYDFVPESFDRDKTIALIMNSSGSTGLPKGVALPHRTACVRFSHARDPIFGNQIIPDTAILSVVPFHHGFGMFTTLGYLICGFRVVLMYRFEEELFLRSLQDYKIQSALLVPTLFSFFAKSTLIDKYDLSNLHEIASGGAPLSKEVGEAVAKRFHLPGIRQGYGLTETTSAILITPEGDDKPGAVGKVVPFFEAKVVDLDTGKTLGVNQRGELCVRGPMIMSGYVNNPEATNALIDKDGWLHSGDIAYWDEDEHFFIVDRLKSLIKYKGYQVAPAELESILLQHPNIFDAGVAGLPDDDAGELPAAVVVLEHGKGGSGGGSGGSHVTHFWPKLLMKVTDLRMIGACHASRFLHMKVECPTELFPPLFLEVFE

nLuc:cERβ = molecular target: T2, nLuc:cERβ; assay: split firefly luciferase complementation in HEK293T cells, ligand dose response (FIG. 2C)
T2 construct: Expressed in HEK293T cells from pcDNA3; also called Myc:gsg:nLuc:gs10:cERβ; cSplit of ERβ CISPA sensor
T2 chain: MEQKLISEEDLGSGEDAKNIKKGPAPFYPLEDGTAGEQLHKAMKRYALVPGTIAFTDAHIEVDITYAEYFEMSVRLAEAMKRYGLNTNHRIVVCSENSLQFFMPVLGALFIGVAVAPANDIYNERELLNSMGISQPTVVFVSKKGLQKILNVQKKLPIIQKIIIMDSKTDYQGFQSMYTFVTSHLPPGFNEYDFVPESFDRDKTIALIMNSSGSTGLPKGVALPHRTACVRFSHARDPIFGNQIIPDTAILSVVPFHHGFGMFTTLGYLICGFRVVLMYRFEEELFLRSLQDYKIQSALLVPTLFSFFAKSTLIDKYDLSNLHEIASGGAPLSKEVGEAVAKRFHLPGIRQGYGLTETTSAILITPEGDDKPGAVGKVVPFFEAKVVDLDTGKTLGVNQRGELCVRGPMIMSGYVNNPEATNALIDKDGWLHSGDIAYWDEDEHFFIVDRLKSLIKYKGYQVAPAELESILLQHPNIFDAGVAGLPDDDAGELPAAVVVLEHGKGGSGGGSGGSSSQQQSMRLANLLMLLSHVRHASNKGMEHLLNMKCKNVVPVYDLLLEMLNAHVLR
Protocol: (§1) 50 ng of each plasmid encoding CISPA sensor pair was transiently co-transfected in HEK293T cells which were 24 h post-transfection stimulated with the indicated ligands. […] Replicates represent HEK293T cell cultures, individually transfected with the same mixture of plasmids. The values represent the mean and standard deviation of replicates within two to three independent experiments (n=4). Data was plotted as a standard dose response curve.
(§2) The fusion constructs were simultaneously expressed in the HEK293T cell line. […] Following this dimerization, the split reporter fragments (nLuc and cLuc) are brought into the proximity, leading to their reconstitution and measurable output signal (emitted light). The plasmids encoding for the CISPA sensors based on split LBDs were transiently transfected into the HEK293T cell line. […]
(§3) Two days after transfection, the cells were harvested and lysed with 25 μl of 1× passive lysis buffer (Promega). Firefly luciferase and Renilla luciferase expression were measured using a dual luciferase assay (Promega) and an Orion II microplate reader (Berthold Technologies). […] Relative luciferase activity (RLU) was calculated by normalizing each sample's firefly luciferase activity to the constitutive Renilla luciferase activity determined within the same sample.

nLuc:cLyn = molecular target: T3, nLuc:cLyn; assay: split firefly luciferase complementation in HEK293T cells, dasatinib dose response (FIG. 3A)
T3 construct: Expressed in HEK293T cells from pcDNA3; also called Myc:gsg:nLuc:gs10:cLyn; cSplit of Lyn CISPA sensor
Protocol: (§4) Cell cultures of HEK293T cells were grown at 37° C. and 5% CO₂. For cultivation, DMEM medium with 10% FBS, containing all the necessary nutrients and growth factors was used. When the cell population reached a sufficient density, the cells were transferred to a new flask and/or diluted. For use in experiments, the number of cells was determined by the Countess automated cell counter (Invitrogen). A 96-well microtiter plate, suitable for growing cell cultures, was inoculated with 2*10⁴ cells per well 24 hours prior to transfection. Inoculated plates were incubated at 37° C. and 5% CO₂. […] Twelve hours after transfection, the cells were stimulated by removing the media and replacing it with media containing selected ligands. Cells were stimulated for 24 hours.
as §3
The plasmids encoding for designed CISPA sensor were transiently co-transfected into HEK293T cell line. […]

nLuc:cDHFR = molecular target: T4, nLuc:cDHFR (human, UniProt P08659 2-491 = luciferase); assay: split firefly luciferase complementation in HEK293T cells, methotrexate or pralatrexate dose response (FIG. 3B)
T4 construct: Expressed in HEK293T cells from pcDNA3; also called Myc:gsg:nLuc:gs10:cDHFR; cSplit of DHFR CISPA sensor
Protocol: as §4, §3
The plasmids encoding for CISPA sensor was transiently co-transfected into HEK293T cell line. […]

nLuc:cGR2 = molecular target: T5, nLuc:cGR2; assay: split firefly luciferase complementation in HEK293T cells; dimerization only with cognate ligand
T5 construct: Expressed in HEK293T cells from pcDNA3; also called Myc:gsg:nLuc:gs10:cGR2; cSplit of GR2 CISPA sensor
T5 chain: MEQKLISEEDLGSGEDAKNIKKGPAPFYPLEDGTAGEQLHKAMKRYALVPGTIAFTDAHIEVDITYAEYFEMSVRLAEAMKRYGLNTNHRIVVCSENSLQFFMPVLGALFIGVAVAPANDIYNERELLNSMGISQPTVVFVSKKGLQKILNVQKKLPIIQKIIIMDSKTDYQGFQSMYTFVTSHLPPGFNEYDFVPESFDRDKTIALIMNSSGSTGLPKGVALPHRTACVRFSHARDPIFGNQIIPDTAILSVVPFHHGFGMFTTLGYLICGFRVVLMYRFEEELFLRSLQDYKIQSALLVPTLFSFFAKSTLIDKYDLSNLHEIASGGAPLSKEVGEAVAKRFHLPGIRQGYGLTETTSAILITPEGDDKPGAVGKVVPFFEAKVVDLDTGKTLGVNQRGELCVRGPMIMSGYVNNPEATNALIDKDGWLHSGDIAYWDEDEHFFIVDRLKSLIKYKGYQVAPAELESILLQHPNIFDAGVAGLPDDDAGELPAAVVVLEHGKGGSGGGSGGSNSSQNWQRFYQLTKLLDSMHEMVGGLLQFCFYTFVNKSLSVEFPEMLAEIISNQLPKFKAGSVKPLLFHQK
Protocol: as §1, §2, §3

nLuc:cPPARγ = molecular target: T6, nLuc:cPPARγ; assay: split firefly luciferase complementation in HEK293T cells, ligand dose response (FIG. 2E)
T6 construct: Expressed in HEK293T cells from pcDNA3; also called Myc:gsg:nLuc:gs10:cPPARγ; cSplit of PPARγ CISPA sensor
T6 chain: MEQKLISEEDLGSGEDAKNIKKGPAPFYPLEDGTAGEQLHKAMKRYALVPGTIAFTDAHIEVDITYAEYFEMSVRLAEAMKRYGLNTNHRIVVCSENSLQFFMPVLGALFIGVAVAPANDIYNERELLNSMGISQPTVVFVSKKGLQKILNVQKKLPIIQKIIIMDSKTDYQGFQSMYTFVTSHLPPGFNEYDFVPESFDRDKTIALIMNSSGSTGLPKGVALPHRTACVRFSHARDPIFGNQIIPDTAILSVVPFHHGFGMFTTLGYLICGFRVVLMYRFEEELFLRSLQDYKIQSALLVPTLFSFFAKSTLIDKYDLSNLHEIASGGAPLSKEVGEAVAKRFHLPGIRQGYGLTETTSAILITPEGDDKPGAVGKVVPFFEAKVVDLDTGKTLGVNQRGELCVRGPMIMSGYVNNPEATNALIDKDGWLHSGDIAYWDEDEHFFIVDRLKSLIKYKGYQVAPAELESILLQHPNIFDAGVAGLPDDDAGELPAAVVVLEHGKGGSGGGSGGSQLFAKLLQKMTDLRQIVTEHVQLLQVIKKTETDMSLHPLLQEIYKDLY
Protocol: as §1, §2, §3

B1: nTRβ:cLuc (other)
chain: MHMEELQKSIGHKPEPTDEEWELIKTVTEAHVATNAQGSHWKQKRKFLPEDIGQAPIVNAPEGGKVDLEAFSHFTKIITPAITRVVDFAKKLPMFCELPCEDQIILLKGCCMEIMSLRAAVRYDPESETLTLNGEMAVTRGQLKNGGLGVVSDAIFDLGMSLSSFNLDDTEVALLQAVLLMSSDRPGLACVERIEKYQDSFLLAFEHYINYRKHGGSGGGSGGSTMTEKEIVDYVASQVTTAKKLRGGVVFVDEVPKGLTGKLDARKIREILIKAKKGGKIAVNSGSGYPYDVPDYA
notes: also called nTRβ:gs10:cLuc:gsg:HA; nSplit of TRβ CISPA sensor
binding result (nLuc:cTRβ): binds

B2: nERβ:cLuc (other)
chain: MDALSPEQLVLTLLEAEPPHVLISRPSAPFTEASMMMSLTKLADKELVHMISWAKKIPGFVELSLFDQVRLLESCWMEVLMMGLMWRSIDHPGKLIFAPDLVLDRDEGKCVEGILEIFDMLLATTSRFRELKLQHKEYLCVKAMILLNSSMYPLVTATQDADSSRKLAHLLNAVTDALVWVIAKSGIGGSGGGSGGSTMTEKEIVDYVASQVTTAKKLRGGVVFVDEVPKGLTGKLDARKIREILIKAKKGGKIAVNSGSGYPYDVPDYA
notes: Expressed in HEK293T cells from pcDNA3; also called nERβ:gs10:cLuc:gsg:HA; nSplit of ERβ CISPA sensor
binding result (nLuc:cERβ): binds

B3: nLyn:cLuc (other)
chain: MAWEIPRESIKLVKRLGAGQFGEVWMGYYNGGSGGGSGGSTMTEKEIVDYVASQVTTAKKLRGGVVFVDEVPKGLTGKLDARKIREILIKAKKGGKIAVNSGSGYPYDVPDYA
notes: Expressed in HEK293T cells from pcDNA3; also called nLyn:gs10:cLuc:gsg:HA; nSplit of Lyn CISPA sensor
binding result (nLuc:cLyn): binds

B4: nDHFR:cLuc (other)
chain: MVGSLNCIVAVSQNMGIGKNGDLPWPPLRNEFRYFQRMTTTSSVEGKQNLVIMGKKTWFSIPEKNRPLKGRINLVLSRELKEPPQGAHFLSRSLDDALKLTEQPELANKVDMVWIVGGSSVYKEAMNHPGHLKLFVTRIMQDFESDTFFPEIDLEKYKLLPEYPGVLSDVQEEKGGSGGGSGGSTMTEKEIVDYVASQVTTAKKLRGGVVFVDEVPKGLTGKLDARKIREILIKAKKGGKIAVNSGSGYPYDVPDYA
notes: Expressed in HEK293T cells from pcDNA3; also called nDHFR:gs10:cLuc:gsg:HA; nSplit of DHFR CISPA sensor
binding result (nLuc:cDHFR): binds

B5: nGR2:cLuc (other)
chain: MLISLLEVIEPEVLYSGYDSTLPDTSTRLMSTLNRLGGRQVVSAVKWAKALPGFRNLHLDDQMTLLQYSWMSLMAFSLGWRSYKQSNGNMLCFAPDLVINEERMQLPYMYDQCQQMLKISSEFVRLQVSYDEYLCMKVLLLLSTVPKDGLKSQAVFDEIRMTYIKELGKAIVKREGGGSGGGSGGSTMTEKEIVDYVASQVTTAKKLRGGVVFVDEVPKGLTGKLDARKIREILIKAKKGGKIAVNSGSGYPYDVPDYA
notes: Expressed in HEK293T cells from pcDNA3; also called nGR2:gs10:cLuc:gsg:HA; nSplit of GR2 CISPA sensor
binding result (nLuc:cGR2): binds

B6: nPPARγ:cLuc (other)
chain: MGSHMLNPESADLRALAKHLYDSYIKSFPLTKAKARAILTGKTTDKSPFVIYDMNSLMMGEDKIKFKHITPLQEQSKEVAIRIFQGCQFRSVEAVQEITEYAKSIPGFVNLDLNDQVTLLKYGVHEIIYTMLASLMNKDGVLISEGQGFMTREFLKSLRKPFGDFMEPKFEFAVKFNALELDDSDLAIFIAVIILSGDRPGLLNVKPIEDIQDNLLQALELQLKLNHPESSGGSGGGSGGSTMTEKEIVDYVASQVTTAKKLRGGVVFVDEVPKGLTGKLDARKIREILIKAKKGGKIAVNSGSGYPYDVPDYA
notes: Expressed in HEK293T cells from pcDNA3; also called nPPARγ:gs10:cLuc:gsg:HA; nSplit of PPARγ CISPA sensor
binding result (nLuc:cPPARγ): binds
